Measurements: patent US20080305501A1

Molecular target: chimeric receptor comprising mouse TNFR1 external domain (residues 1-210 of SEQ ID NO:1) linked to the transmembrane and intracellular domains of mouse RANK (residues 210-625 of SEQ ID NO:2) (mouse)
Assay: cell-based or functional assay

chimeric receptor comprising mouse TNFR1 external domain (residues 1-210 of SEQ ID NO:1) linked to the transmembrane and intracellular domains of mouse RANK (residues 210-625 of SEQ ID NO:2) (mouse), sequence (chain, as listed by the source mutant): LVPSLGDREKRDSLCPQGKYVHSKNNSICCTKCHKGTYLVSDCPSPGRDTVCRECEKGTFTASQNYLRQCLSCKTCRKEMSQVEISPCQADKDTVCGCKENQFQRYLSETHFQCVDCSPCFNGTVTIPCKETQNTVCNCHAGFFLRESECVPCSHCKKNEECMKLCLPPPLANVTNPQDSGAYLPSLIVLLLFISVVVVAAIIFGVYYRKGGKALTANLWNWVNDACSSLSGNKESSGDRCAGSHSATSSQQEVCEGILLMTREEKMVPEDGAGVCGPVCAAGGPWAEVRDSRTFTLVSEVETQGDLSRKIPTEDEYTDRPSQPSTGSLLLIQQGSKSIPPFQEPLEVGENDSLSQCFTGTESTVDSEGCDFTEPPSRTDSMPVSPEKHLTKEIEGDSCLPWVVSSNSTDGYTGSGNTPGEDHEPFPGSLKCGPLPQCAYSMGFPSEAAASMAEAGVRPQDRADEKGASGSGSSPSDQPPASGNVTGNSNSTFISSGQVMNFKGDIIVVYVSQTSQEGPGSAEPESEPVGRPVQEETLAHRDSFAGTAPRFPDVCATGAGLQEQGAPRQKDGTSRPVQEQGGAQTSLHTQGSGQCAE

osteoclast formation; lowest TNFα concentration still active: 1 ng/mL
Substance: Recombinant mouse TNFα (410-TRNC-050, R&D Systems) (from UniProt P06804 80-235) (ligand)
